In this series the target is PvLDH (lactate dehydrogenase) (Plasmodium vivax) (UniProt Q4PRK9). Kind of series: flow cytometry (Ni-NTA beads). (In general: In flow cytometry, cells or beads pass a laser one at a time.)
The mark [1] stands for this setting: dUCOTc replaces every T after the 20-nt forward primer.

As usually defined, the Kd is a measure of binding affinity in units of concentration. A low value points to tighter binding.

For the sequence “CACTCACGTCAGTGACATGCAGGTCCTCTCGCCCCCAGTGACTTGCGTGGTCAGAAATTTCGCACCAC [N15 COTc aptamer]”, the Kd under setting [1] is 5.6 nM. In other words, the single-digit nanomolar range.

Consider “CACTCACGTCAGTGACATGCCAAGCGAAGTTGTGCGCCCGCGTCGTGGTCGTCAGAAATTTCGCACCAC [N5 COTc aptamer]”, for which the Kd under setting [1] was 14.4 nM.

For the sequence “CACTCACGTCAGTGACATGCGCATTACGCAGCGCTGCGCAGCGAGTACCGGTCAGAAATTTCGCACCAC [N0 COTc aptamer]”, under “dUCOTc (COT-carboxylate-modified dU) replaces every T after the 20-nt forward primer”, the dissociation constant Kd worked out at 3.7 nM.

The values are drawn from publication PMC12436594.
